The values below come from paper PMC8805389, “High-level production of the agmatine in engineered Corynebacterium crenatum with the inhibition-releasing arginine decarboxylase” (Microbial Cell Factories, 2022).

Substrate in the data set “purified protein”: N=C(N)NCCC[C@H](N)C(=O)O
The data set can be described thus: purified protein. The conditions noted are these: 50 mM Tris-HCl pH 8.0, 2.5 mM MgSO4, 0.6 mM PLP, 37 °C.

Substrate in data set [1]: N=C(N)NCCC[C@H](N)C(=O)O
The data set can be described thus: arginine decarboxylase activity, agmatine by HPLC. Format: biochemical, Escherichia coli. To be noted: 50 mM Tris-HCl pH 8.0, 2.5 mM MgSO4, 0.6 mM PLP, 37 °C. From the text: arginine decarboxylase activity, agmatine by HPLC on SpeA

Numbering of substitutions follows the chain as printed. Names and notes keep the numbering of the source.

B1: SpeA (Escherichia coli K-12) (protein)
chain: MSDDMSMGLPSSAGEHGVLRSMQEVAMSSQEASKMLRTYNIAWWGNNYYDVNELGHISVCPDPDVPEARVDLAQLVKTREAQGQRLPALFCFPQILQHRLRSINAAFKRARESYGYNGDYFLVYPIKVNQHRRVIESLIHSGEPLGLEAGSKAELMAVLAHAGMTRSVIVCNGYKDREYIRLALIGEKMGHKVYLVIEKMSEIAIVLDEAERLNVVPRLGVRARLASQGSGKWQSSGGEKSKFGLAATQVLQLVETLREAGRLDSLQLLHFHLGSQMANIRDIATGVRESARFYVELHKLGVNIQCFDVGGGLGVDYEGTRSQSDCSVNYGLNEYANNIIWAIGDACEENGLPHPTVITESGRAVTAHHTVLVSNIIGVERNEYTVPTAPAEDAPRALQSMWETWQEMHEPGTRRSLREWLHDSQMDLHDIHIGYSSGIFSLQERAWAEQLYLSMCHEVQKQLDPQNRAHRPIIDELQERMADKMYVNFSLFQSMPDAWGIDQLFPVLPLEGLDQVPERRAVLLDITCDSDGAIDHYIDGDGIATTMPMPEYDPENPPMLGFFMVGAYQEILGNMHNLFGDTEAVDVFVFPDGSVEVELSDEGDTVADMLQYVQLDPKTLLTQFRDQVKKTDLDAELQQQFLEEFEAGLYGYTYLEDE
B1: in the data set “purified protein”, the Km is listed as 0.602 ± 0.092 mM, the kcat stood at 1.79 ± 0.135 s⁻¹ and the kcat/Km came to 2970 M⁻¹ s⁻¹.

B2: SpeA (Escherichia coli K-12; I534D) (protein)
chain: B1 chain with I534D
notes: C-terminal His-tag; expressed in E. coli BL21(DE3) from pXMJ19; HisTrap purified; tetramer (two dimers)
For B2, in data set [1], the Michaelis constant (Km) was 0.623 ± 0.075 mM, the catalytic constant (kcat) was found to be 2.64 ± 0.328 s⁻¹ and the kcat/Km was determined as 4240 M⁻¹ s⁻¹.

B3: SpeA (Escherichia coli K-12; I534S) (protein)
chain: B1 chain with I534S
notes: as for B2
For the protein B3, in data set [1], the Michaelis-Menten constant (Km) is recorded as 0.691 ± 0.069 mM, the kcat is 2.12 ± 0.206 s⁻¹ and the kcat/Km was determined as 3070 M⁻¹ s⁻¹.
